The source of these data is article PMC2150872 (The Journal of Cell Biology, 2001).

The target of one experiment is T1, keratin 5 (human, UniProt P13647 1-590).
T1 sequence (looked up): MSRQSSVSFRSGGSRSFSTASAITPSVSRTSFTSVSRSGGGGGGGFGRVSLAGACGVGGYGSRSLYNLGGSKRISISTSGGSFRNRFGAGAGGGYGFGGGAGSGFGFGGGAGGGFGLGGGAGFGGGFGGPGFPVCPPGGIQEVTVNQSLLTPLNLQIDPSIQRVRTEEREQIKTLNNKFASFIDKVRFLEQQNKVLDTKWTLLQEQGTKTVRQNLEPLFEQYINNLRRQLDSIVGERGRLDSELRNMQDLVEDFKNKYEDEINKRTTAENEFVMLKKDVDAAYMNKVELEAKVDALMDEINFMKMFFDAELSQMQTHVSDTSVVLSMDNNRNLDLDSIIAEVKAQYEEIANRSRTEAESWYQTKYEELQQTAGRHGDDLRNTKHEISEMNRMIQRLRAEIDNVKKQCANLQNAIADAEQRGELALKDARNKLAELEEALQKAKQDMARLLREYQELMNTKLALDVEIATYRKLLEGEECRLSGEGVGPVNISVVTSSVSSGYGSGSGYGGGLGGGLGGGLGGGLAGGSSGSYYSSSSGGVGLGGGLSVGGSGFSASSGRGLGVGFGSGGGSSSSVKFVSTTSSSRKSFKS
Nature of the experiment: filament reconstitution.

The next experiment addresses T2, wt K5–K14 filaments (human, UniProt P13647 1-590; P02533 1-472).
T2 sequence (looked up) 1: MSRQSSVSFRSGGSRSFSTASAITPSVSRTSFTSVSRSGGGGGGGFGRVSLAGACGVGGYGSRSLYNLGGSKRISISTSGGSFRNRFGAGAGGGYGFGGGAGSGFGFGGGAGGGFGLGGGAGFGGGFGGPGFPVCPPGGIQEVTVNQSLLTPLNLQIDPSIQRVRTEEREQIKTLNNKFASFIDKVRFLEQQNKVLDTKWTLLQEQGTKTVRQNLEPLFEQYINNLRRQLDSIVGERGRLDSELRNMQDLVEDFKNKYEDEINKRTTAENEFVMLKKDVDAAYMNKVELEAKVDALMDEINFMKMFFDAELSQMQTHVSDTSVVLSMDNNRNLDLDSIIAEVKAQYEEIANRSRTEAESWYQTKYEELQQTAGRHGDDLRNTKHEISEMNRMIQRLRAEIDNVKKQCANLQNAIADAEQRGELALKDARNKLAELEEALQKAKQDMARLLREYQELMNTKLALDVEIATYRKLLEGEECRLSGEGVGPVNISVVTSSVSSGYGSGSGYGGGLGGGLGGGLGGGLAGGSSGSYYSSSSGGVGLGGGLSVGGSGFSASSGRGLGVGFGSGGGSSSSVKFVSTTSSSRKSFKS
T2 sequence (looked up) 2: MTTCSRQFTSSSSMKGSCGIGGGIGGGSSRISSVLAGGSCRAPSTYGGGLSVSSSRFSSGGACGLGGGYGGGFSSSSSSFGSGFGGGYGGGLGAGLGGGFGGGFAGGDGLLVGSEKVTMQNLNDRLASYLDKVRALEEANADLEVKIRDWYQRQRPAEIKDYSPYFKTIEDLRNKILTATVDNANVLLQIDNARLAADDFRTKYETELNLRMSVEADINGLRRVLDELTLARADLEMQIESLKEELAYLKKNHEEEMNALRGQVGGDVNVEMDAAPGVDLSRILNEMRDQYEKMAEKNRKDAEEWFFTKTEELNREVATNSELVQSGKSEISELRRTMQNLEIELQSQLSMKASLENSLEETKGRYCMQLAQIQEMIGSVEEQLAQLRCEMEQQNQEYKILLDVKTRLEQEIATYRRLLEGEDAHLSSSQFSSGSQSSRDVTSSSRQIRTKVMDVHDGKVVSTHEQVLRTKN
Put plainly: co-sedimentation.

B1: keratin 19 (natural protein, human, UniProt P08727 1-400, looked up)
chain: MTSYSYRQSSATSSFGGLGGGSVRFGPGVAFRAPSIHGGSGGRGVSVSSARFVSSSSSGAYGGGYGGVLTASDGLLAGNEKLTMQNLNDRLASYLDKVRALEAANGELEVKIRDWYQKQGPGPSRDYSHYYTTIQDLRDKILGATIENSRIVLQIDNARLAADDFRTKFETEQALRMSVEADINGLRRVLDELTLARTDLEMQIEGLKEELAYLKKNHEEEISTLRGQVGGQVSVEVDSAPGTDLAKILSDMRSQYEVMAEQNRKDAEAWFTSRTEELNREVAGHTEQLQMSRSEVTDLRRTLQGLEIELQSQLSMKAALEDTLAETEARFGAQLAHIQALISGIEAQLGDVRADSERQNQEYQRLMDIKSRLEQEIATYRSLLEGQEDHYNNLSASKVL
In the case of B1, in the experiment with keratin 5, the binding result is “binds”. In general, Kd refers to the equilibrium constant for the complex coming apart. In the experiment with wt K5–K14 filaments, SSSQFSSGSQSSRDVTSSSRQIRTKVMDVHDGKVVSTHEQVLRTKN (domain or fragment) [His-T14 (His-tagged nonhelical tail domain of human keratin 14)] returned a Kd of about 2000 nM.
